# Data as given in IntAct's records for PubMed 11847120.
# B1: POU domain, class 2, transcription factor 1 (Homo sapiens), P14859-1 (parent)
# chain: MNNPSETSKPSMESGDGNTGTQTNGLDFQKQPVPVGGAISTAQAQAFLGHLHQVQLAGTSLQAAAQSLNVQSKSNEESGDSQQPSQPSQQPSVQAAIPQTQLMLAGGQITGLTLTPAQQQLLLQQAQAQAQLLAAAVQQHSASQQHSAAGATISASAATPMTQIPLSQPIQIAQDLQQLQQLQQQNLNLQQFVLVHPTTNLQPAQFIISQTPQGQQGLLQAQNLLTQLPQQSQANLLQSQPSITLTSQPATPTRTIAATPIQTLPQSQSTPKRIDTPSLEEPSDLEELEQFAKTFKQRRIKLGFTQGDVGLAMGKLYGNDFSQTTISRFEALNLSFKNMCKLKPLLEKWLNDAENLSSDSSLSSPSALNSPGIEGLSRRRKKRTSIETNIRVALEKSFLENQKPTSEEITMIADQLNMEKEVIRVWFCNRRQKEKRINPPSSGGTSSSPIKAIFPSPTSLVATTPSLVTSSAATTLTVSPVLPLTSAAVTNLSVTGTSDTTSNNTATVISTAPPASSAVTSPSLSPSPSASASTSEASSASETSTTQTTSTPLSSPLGTSQVMVTASGLQTAAAAALQGAAQLPANASLAAMAAAAGLNPSLMAPSQFAAGGALLSLNPGTLSGALSPALMSNSTLATIQALASGGSLPITSLDATGNLVFANAGGAPNIVTAPLFLNPQNLSLLTSNPVSLVSAAAASAGNSAPVASLHATSTSAESIQNSLFTVASASGAASTTTTASKAQ
# partner: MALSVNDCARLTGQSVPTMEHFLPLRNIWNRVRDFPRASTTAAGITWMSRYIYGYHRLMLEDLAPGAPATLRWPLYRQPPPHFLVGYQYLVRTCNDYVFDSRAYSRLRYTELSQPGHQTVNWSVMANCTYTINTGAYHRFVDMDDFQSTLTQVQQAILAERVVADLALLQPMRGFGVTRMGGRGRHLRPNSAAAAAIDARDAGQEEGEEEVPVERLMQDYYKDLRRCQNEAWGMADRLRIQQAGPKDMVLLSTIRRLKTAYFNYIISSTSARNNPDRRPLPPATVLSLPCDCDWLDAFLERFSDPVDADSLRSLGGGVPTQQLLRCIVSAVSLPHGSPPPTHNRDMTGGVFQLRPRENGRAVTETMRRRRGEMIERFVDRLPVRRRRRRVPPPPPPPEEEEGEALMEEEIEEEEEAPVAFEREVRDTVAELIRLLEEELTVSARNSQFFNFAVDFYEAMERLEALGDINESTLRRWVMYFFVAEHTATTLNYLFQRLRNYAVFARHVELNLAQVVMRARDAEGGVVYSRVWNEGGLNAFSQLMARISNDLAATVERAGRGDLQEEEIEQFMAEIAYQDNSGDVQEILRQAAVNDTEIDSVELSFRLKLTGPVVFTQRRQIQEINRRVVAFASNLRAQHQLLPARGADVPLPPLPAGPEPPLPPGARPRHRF
# Variants of: B1
# Conditions: with term_ade05 PTP
row,Variant,effect of a mutation on the interaction
1,R380W,disrupting interaction strength
2,T384P,disrupting interaction strength
3,T384S,decreasing interaction strength
4,Q415L;C428S,decreasing interaction strength
5,K403Q;R424S,decreasing interaction strength
6,K403E,decreasing interaction strength
7,K403M,disrupting interaction strength
8,I373T;V425A,decreasing interaction strength
9,R431S,decreasing interaction strength
10,E400G;M418L,decreasing interaction strength
11,F427Y,disrupting interaction strength
12,E419G;K433E,decreasing interaction strength
13,N429D,disrupting interaction strength
14,I412F;V425D,decreasing interaction strength
15,R383S,decreasing interaction strength
16,S377G;K420E,disrupting interaction strength
17,D414G;V425G,disrupting interaction strength
18,K382T,decreasing interaction strength
19,V425G,disrupting interaction strength
20,E408G,decreasing interaction strength
21,C428Y,disrupting interaction strength
22,K382E;L394S,decreasing interaction strength
23,T410S,decreasing interaction strength
